This note sets out measurements from paper PMC9499506, “TNF-α and IL-1β Modulate Blood-Brain Barrier Permeability and Decrease Amyloid-β Peptide Efflux in a Human Blood-Brain Barrier Model” (International Journal of Molecular Sciences, 2022).

Series [1] relates to BLECs. The note with it: MTT assay; 10% (v/v) DMSO, 24 h; positive control of cell toxicity; mean of at least three independent experiments in triplicate. As to the method:
An MTT assay was performed as a preliminary test to determine their effect on BLEC viability and to validate the chosen concentrations. Dimethyl sulfoxide (DMSO) at 10% (v/v) was used as a positive control of cell toxicity.
After 6 days of coculture, TNF-α or IL-1β were added to the basolateral compartment (brain side) at 10 ng·mL^−1 for 24 h, at 37 °C and 5% CO2, to mimic CNS inflammation condition. Each condition was studied in triplicate.
The standard MTT [3-(4,5-dimethylthiazol-2-yl)-2,5-diphenyltetrazolium bromide] assay (AR1156, Boster Biological Technology, Pleasanton, CA, USA) was performed to determine BLEC viability. Briefly, after coculture treatments, culture medium was removed and replaced with worm Ringer-Hepes (RH; 150 mM NaCl, 5.2 mM KCl, 2.2 mM CaCl2, 0.2 mM MgCl2–6H2O, 6 mM NaHCO3, 5 mM HEPES, 2.8 mM glucose; pH: 7.4) in basolateral compartment and with MTT solution (0.5 mg·mL^−1) in RH at in the opposite compartment for 3 h at 37 °C and 5% CO2. […] Aliquot was sampled in 96-well plate and the optical density (OD) was measured with a microplate reader (Synergy H1, BioTek. Colmar, France) at the wavelength of 570 and 630 nm. The percentage of relative cell viability compared to the control condition was subsequently determined using the following formula: % relative cell viability = ((OD570 − OD630) condition)/((OD570 – OD630)control) × 100.
(In general: Tetrazolium assays rely on reduction of a dye to a coloured formazan, in cell work by metabolically active cells.)

For series [2], the system named is BLECs. The series can be described thus: Aβ1–40Cy5 peptide / FITC-inulin transport across untreated BLECs (Papp, transcytosis quotient). It counts as in vitro ADME, human. The note with it: 30 min, 37 °C, mean ± SEM; for apparent permeability coefficient (Papp), efflux transport, control: untreated human BLECs on Transwell insert, basolateral-to-apical, 10 nM Aβ1–40Cy5 with 1 µM FITC-inulin in RH-HSA 0.1% pH 7.4, slight agitation, fluorescence, at least three independent experiments in triplicate. As to the method:
As TNF-α and IL-1β modulated the protein expression levels of LRP1, BCRP and PICALM (Figure 4), we investigated the effect of these cytokines on the transport of Aβ peptide across the BBB. After 24 h of treatment with proinflammatory cytokines, the apical-to-basolateral (influx) and basolateral-to-apical (efflux) Aβ1–40Cy5 peptide transports across the BLECs were assessed in the presence of FITC-inulin. The Aβ1–40 peptide was used in all experiments, as it is the most abundant amyloid peptide found on cerebral blood vessels. FITC-inulin was used to determine the nonspecific transcytosis quotient (Figure 5A). Indeed, unlike Aβ peptide, FITC-inulin is not actively cleared at the BBB and acts as a reference marker of paracellular permeability, thus as previously reported.
(§1) As described previously, the human in vitro blood-brain barrier (BBB) model based on the acquisition of the human brain-like endothelial cell (BLEC) phenotype was used for this study. This BBB model corresponds to a coculture of primary human endothelial cells (ECs) derived from CD34^+ cord blood hematopoietic stem cells and bovine brain pericytes, isolated as described by Vandenhaute and colleagues. Informed consent was obtained from all infants’ parents for the umbilical cord blood collection and use. Procedures for isolation of cells from umbilical cord were approved by the French Ministry of Higher Education and Research (CODECOH DC2011-1321, approved 31 January 2013) and by the local investigational review board (Béthune Maternity Hospital, Beuvry, France). Briefly, 8 × 10^4 ECs at passage 6 were seeded onto Matrigel-coated (BD Biosciences, San Jose, CA, USA) insert (pore size 0.4 μm, Costar Transwell inserts, Corning Inc., Corning, New York, NY, USA. Endothelial cells were cocultured with bovine brain pericytes at passage 10 in a 12-well plate gelatin-coated with ECM-5. Every two days, ECM-5 was changed until experiment. However, a minimum of 5 days of culture were required for the ECs to develop the BLEC phenotype and a maximum of 21 days of BLEC phenotype stability has been determined. Once BLEC phenotype was acquired, these cells delimited two compartments, one mimicking the blood side (corresponding to the apical compartment) and the other the brain side (corresponding to the basolateral side). […]
After proinflammatory cytokine treatments, the influx (apical-to-basolateral) and the efflux (basolateral-to-apical) transport of Aβ1–40 peptides across BLECs were investigated as previously described. […] The BBB integrity was determined by measuring the endothelial permeability of a radioactive integrity marker, ^14C-sucrose, using the same method of calculation as described in Section 4.4. […]

The subject of series [3] is BLEC monolayer. The series can be described thus: Endothelial permeability coefficient of lucifer yellow across untreated BLEC monolayer. It counts as in vitro ADME, human. The note with it: mean ± SEM.
Text: as §1, with “Procedures for isolation of cells from umbilical cord were approved by the French Ministry of Higher Education and Research (CODECOH DC2011-1321, approved 31 January 2013) and by the local investigational review board (Béthune Maternity Hospital, Beuvry, France).” left out
The BLEC monolayer integrity was evaluated after each treatment using the method described by Dehouck and colleagues. […]

Turning to `C[S+](C)[O-]` [DMSO, Dimethyl sulfoxide, reference compound], in series [1], the “decrease of BLEC viability compared to control” value is given as 26.5%. As for FITC-inulin, in series [2], the “apparent permeability coefficient (Papp), efflux transport, control” value is listed as 1.41 ± 0.03 × 10^−6 cm·min^−1.

In the case of Lucifer Yellow CH dilithium salt [LY], the “transcellular PeLY, control BLECs” value in series [3] (PeLY at 37 °C minus PeLY at 4 °C) is on record as 0.36 ± 0.02 × 10^−3 cm·min^−1. For the same compound, the “paracellular PeLY, control BLECs” value in series [3] (as total PeLY but at 4 °C (transcellular pathway inhibited), 50 µM LY in RH buffer, fluorescence) is reported as 0.18 ± 0.01 × 10^−3 cm·min^−1.

With “human amyloid-β peptide (1–40)-Cy5 [Aβ1–40Cy5]”, in series [2] (efflux Aβ1–40Cy5 Papp / efflux FITC-inulin Papp, untreated BLECs), the “transcytosis quotient of Aβ1–40Cy5, efflux direction, control” value turned out to be 3.22 ± 0.13. Also, the “transcytosis quotient of Aβ1–40Cy5, influx direction, control” value in series [2] (influx Aβ1–40Cy5 Papp / influx FITC-inulin Papp, untreated BLECs) is listed as 3.10 ± 0.25. Further, the “apparent permeability coefficient (Papp), efflux transport, control” value in series [2] is reported as 4.47 ± 0.16 × 10^−6 cm·min^−1.
